The text below walks through data of the supplement of paper PMC5998384.

For series [1], the system named is HeLa Kyoto. Briefly: solubility in G1/S (NP-40 vs SDS abundance) (log2 ratio); higher = more soluble. The following applies: cell cycle stage: G1/S.
The subject of series [2] is HeLa Kyoto. Briefly: melting temperature (median over replicates), in situ; higher = more thermally stable.
Series [3] has as its system HeLa Kyoto. Briefly: solubility change mitosis vs G1/S (difference of NP-40 vs SDS log2 ratios) (log2 ratio difference); higher = more soluble in mitosis.
Series [4] deals with HeLa Kyoto. As to the kind of experiment: thermal stability score vs G1/S (z-score of summed log2 fold changes over temperatures); higher = more thermally stable than in G1/S.
The mark [5] stands for this setting: cell cycle stage: early G1 (4.5 h after nocodazole release).
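Throughout, for melting temperature (median over replicates), in situ: HeLa Kyoto cells synchronized by double thymidine or nocodazole block, proteins quantified by TMT10plex mass spectrometry, three independent biological replicates.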
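Throughout, for solubility change mitosis vs G1/S (difference of NP-40 vs SDS log2 ratios): synchronized HeLa Kyoto cells (double thymidine block for G1/S, nocodazole release for mitosis), protein amounts in NP-40 versus SDS lysates quantified by mass spectrometry, three biological replicates.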
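Throughout, for solubility in G1/S (NP-40 vs SDS abundance): HeLa Kyoto cells arrested at G1/S by double thymidine block, proteins quantified by TMT10plex mass spectrometry in mild NP-40 versus SDS extracts, three biological replicates.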
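Throughout, for thermal stability score vs G1/S (z-score of summed log2 fold changes over temperatures): synchronized HeLa Kyoto cells, proteins quantified by TMT10plex mass spectrometry, three biological replicates, mitosis taken 0.5 h after nocodazole release, G1/S directly after double thymidine block.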

As to “MVAPGSVTSRLGSVFPFLLVLVDLQYEGAECGVNADVEKHLELGKKLLAAGQLADALSQFHAAVDGDPDNYIAYYRRATVFLAMGKSKAALPDLTKVIQLKMDFTAARLQRGHLLLKQGKLDEAEDDFKKVLKSNPSENEEKEAQSQLIKSDEMQRLRSQALNAFGSGDYTAAIAFLDKILEVCVWDAELRELRAECFIKEGEPRKAISDLKAASKLKNDNTEAFYKISTLYYQLGDHELSLSEVRECLKLDQDHKRCFAHYKQVKKLNKLIESAEELIRDGRYTDATSKYESVMKTEPSIAEYTVRSKERICHCFSKDEKPVEAIRVCSEVLQMEPDNVNALKDRAEAYLIEEMYDEAIQDYETAQEHNENDQQIREGLEKAQRLLKQSQKRDYYKILGVKRNAKKQEIIKAYRKLALQWHPDNFQNEEEKKKAEKKFIDIAAAKEVLSDPEMRKKFDDGEDPLDAESQQGGGGNPFHRSWNSWQGFNPFSSGGPFRFKFHFN [DNAJC3]”, in the series with HeLa Kyoto [1], the “solubility in G1/S (log2)” value was found to be 0.202. Further, the values for the melting temperature with HeLa Kyoto [2] (cell cycle stage: G1/S) and in the series with HeLa Kyoto [2] (cell cycle stage: mitosis) were 53.3 °C and 54.4 °C, respectively. Besides, in the series with HeLa Kyoto [3], the “solubility change mitosis (log2)” value was -0.0724. In addition, the thermal stability score in the series on HeLa Kyoto [4] (setting [5]) was 5; with HeLa Kyoto [4] (cell cycle stage: mitosis) it was 3.84.

For the sequence “MVAPVLETSHVFCCPNRVRGVLNWSSGPRGLLAFGTSCSVVLYDPLKRVVVTNLNGHTARVNCIQWICKQDGSPSTELVSGGSDNQVIHWEIEDNQLLKAVHLQGHEGPVYAVHAVYQRRTSDPALCTLIVSAAADSAVRLWSKKGPEVMCLQTLNFGNGFALALCLSFLPNTDVPILACGNDDCRIHIFAQQNDQFQKVLSLCGHEDWIRGVEWAAFGRDLFLASCSQDCLIRIWKLYIKSTSLETQDDDNIRLKENTFTIENESVKIAFAVTLETVLAGHENWVNAVHWQPVFYKDGVLQQPVRLLSASMDKTMILWAPDEESGVWLEQVRVGEVGGNTLGFYDCQFNEDGSMIIAHAFHGALHLWKQNTVNPREWTPEIVISGHFDGVQDLVWDPEGEFIITVGTDQTTRLFAPWKRKDQSQVTWHEIARPQIHGYDLKCLAMINRFQFVSGADEKVLRVFSAPRNFVENFCAITGQSLNHVLCNQDSDLPEGATVPALGLSNKAVFQGDIASQPSDEEELLTSTGFEYQQVAFQPSILTEPPTEDHLLQNTLWPEVQKLYGHGYEIFCVTCNSSKTLLASACKAAKKEHAAIILWNTTSWKQVQNLVFHSLTVTQMAFSPNEKFLLAVSRDRTWSLWKKQDTISPEFEPVFSLFAFTNKITSVHSRIIWSCDWSPDSKYFFTGSRDKKVVVWGECDSTDDCIEHNIGPCSSVLDVGGAVTAVSVCPVLHPSQRYVVAVGLECGKICLYTWKKTDQVPEINDWTHCVETSQSQSHTLAIRKLCWKNCSGKTEQKEAEGAEWLHFASCGEDHTVKIHRVNKCAL [ELP2]”, the “solubility in G1/S (log2)” value in the series with HeLa Kyoto [1] is -0.174. Further, the results for the melting temperature with HeLa Kyoto [2] (cell cycle stage: G1/S) and in the series on HeLa Kyoto [2] (cell cycle stage: mitosis) were 51.7 °C and 51.4 °C, respectively. The “solubility change mitosis (log2)” value in the series with HeLa Kyoto [3] is -0.181. For the same sequence, the results for the thermal stability score with HeLa Kyoto [4] (setting [5]) and in the series with HeLa Kyoto [4] (cell cycle stage: mitosis) were -0.251 and -1.61, respectively.

With “MVDKKLVVVFGGTGAQGGSVARTLLEDGTFKVRVVTRNPRKKAAKELRLQGAEVVQGDQDDQVIMELALNGAYATFIVTNYWESCSQEQEVKQGKLLADLARRLGLHYVVYSGLENIKKLTAGRLAAAHFDGKGEVEEYFRDIGVPMTSVRLPCYFENLLSHFLPQKAPDGKSYLLSLPTGDVPMDGMSVSDLGPVVLSLLKMPEKYVGQNIGLSTCRHTAEEYAALLTKHTRKVVHDAKMTPEDYEKLGFPGARDLANMFRFYALRPDRDIELTLRLNPKALTLDQWLEQHKGDFNLL [NMRAL1]”, the “solubility in G1/S (log2)” value in the series on HeLa Kyoto [1] is 0.417. For the same sequence, the melting temperature in the series with HeLa Kyoto [2] (cell cycle stage: G1/S) worked out at 48.9 °C; in the series on HeLa Kyoto [2] (cell cycle stage: mitosis), 49.3 °C. The “solubility change mitosis (log2)” value in the series on HeLa Kyoto [3] is -0.127. The thermal stability score turned out to be 4.25 with HeLa Kyoto [4] (setting [5]) and 3.59 with HeLa Kyoto [4] (cell cycle stage: mitosis).

Turning to “MVDPVGFAEAWKAQFPDSEPPRMELRSVGDIEQELERCKASIRRLEQEVNQERFRMIYLQTLLAKEKKSYDRQRWGFRRAAQAPDGASEPRASASRPQPAPADGADPPPAEEPEARPDGEGSPGKARPGTARRPGAAASGERDDRGPPASVAALRSNFERIRKGHGQPGADAEKPFYVNVEFHHERGLVKVNDKEVSDRISSLGSQAMQMERKKSQHGAGSSVGDASRPPYRGRSSESSCGVDGDYEDAELNPRFLKDNLIDANGGSRPPWPPLEYQPYQSIYVGGMMEGEGKGPLLRSQSTSEQEKRLTWPRRSYSPRSFEDCGGGYTPDCSSNENLTSSEEDFSSGQSSRVSPSPTTYRMFRDKSRSPSQNSQQSFDSSSPPTPQCHKRHRHCPVVVSEATIVGVRKTGQIWPNDGEGAFHGDADGSFGTPPGYGCAADRAEEQRRHQDGLPYIDDSPSSSPHLSSKGRGSRDALVSGALESTKASELDLEKGLEMRKWVLSGILASEETYLSHLEALLLPMKPLKAAATTSQPVLTSQQIETIFFKVPELYEIHKEFYDGLFPRVQQWSHQQRVGDLFQKLASQLGVYRAFVDNYGVAMEMAEKCCQANAQFAEISENLRARSNKDAKDPTTKNSLETLLYKPVDRVTRSTLVLHDLLKHTPASHPDHPLLQDALRISQNFLSSINEEITPRRQSMTVKKGEHRQLLKDSFMVELVEGARKLRHVFLFTDLLLCTKLKKQSGGKTQQYDCKWYIPLTDLSFQMVDELEAVPNIPLVPDEELDALKIKISQIKNDIQREKRANKGSKATERLKKKLSEQESLLLLMSPSMAFRVHSRNGKSYTFLISSDYERAEWRENIREQQKKCFRSFSLTSVELQMLTNSCVKLQTVHSIPLTINKEDDESPGLYGFLNVIVHSATGFKQSSNLYCTLEVDSFGYFVNKAKTRVYRDTAEPNWNEEFEIELEGSQTLRILCYEKCYNKTKIPKEDGESTDRLMGKGQVQLDPQALQDRDWQRTVIAMNGIEVKLSVKFNSREFSLKRMPSRKQTGVFGVKIAVVTKRERSKVPYIVRQCVEEIERRGMEEVGIYRVSGVATDIQALKAAFDVNNKDVSVMMSEMDVNAIAGTLKLYFRELPEPLFTDEFYPNFAEGIALSDPVAKESCMLNLLLSLPEANLLTFLFLLDHLKRVAEKEAVNKMSLHNLATVFGPTLLRPSEKESKLPANPSQPITMTDSWSLEVMSQVQVLLYFLQLEAIPAPDSKRQSILFSTEV [BCR]”, the “solubility in G1/S (log2)” value in the series on HeLa Kyoto [1] is -0.109. Moreover, the melting temperature was 49 °C with HeLa Kyoto [2] (cell cycle stage: G1/S) and 49.2 °C in the series on HeLa Kyoto [2] (cell cycle stage: mitosis). Besides, the “solubility change mitosis (log2)” value in the series on HeLa Kyoto [3] was -0.114. Further, the thermal stability score in the series on HeLa Kyoto [4] (setting [5]) stood at 0.827; with HeLa Kyoto [4] (cell cycle stage: mitosis) it was 1.59.

For the sequence “MVEDELALFDKSINEFWNKFKSTDTSCQMAGLRDTYKDSIKAFAEKLSVKLKEEERMVEMFLEYQNQISRQNKLIQEKKDNLLKLIAEVKGKKQELEVLTANIQDLKEEYSRKKETISTANKANAERLKRLQKSADLYKDRLGLEIRKIYGEKLQFIFTNIDPKNPESPFMFSLHLNEARDYEVSDSAPHLEGLAEFQENVRKTNNFSAFLANVRKAFTATVYN [SPC25]”, the “solubility in G1/S (log2)” value with HeLa Kyoto [1] was 0.585. Further, the values for the melting temperature in the series with HeLa Kyoto [2] (cell cycle stage: G1/S) and in the series on HeLa Kyoto [2] (cell cycle stage: mitosis) were 49.5 °C and 49.6 °C, respectively. Further, the “solubility change mitosis (log2)” value in the series on HeLa Kyoto [3] stood at 0.0937. In addition, the thermal stability score is -0.881 in the series on HeLa Kyoto [4] (setting [5]) and -0.275 with HeLa Kyoto [4] (cell cycle stage: mitosis).

For “MVEEVQKHSVHTLVFRSLKRTHDMFVADNGKPVPLDEESHKRKMAIKLRNEYGPVLHMPTSKENLKEKGPQNATDSYVHKQYPANQGQEVEYFVAGTHPYPPGPGVALTADTKIQRMPSESAAQSLAVALPLQTKADANRTAPSGSEYRHPGASDRPQPTAMNSIVMETGNTKNSALMAKKAPTMPKPQWHPPWKLYRVISGHLGWVRCIAVEPGNQWFVTGSADRTIKIWDLASGKLKLSLTGHISTVRGVIVSTRSPYLFSCGEDKQVKCWDLEYNKVIRHYHGHLSAVYGLDLHPTIDVLVTCSRDSTARIWDVRTKASVHTLSGHTNAVATVRCQAAEPQIITGSHDTTIRLWDLVAGKTRVTLTNHKKSVRAVVLHPRHYTFASGSPDNIKQWKFPDGSFIQNLSGHNAIINTLTVNSDGVLVSGADNGTMHLWDWRTGYNFQRVHAAVQPGSLDSESGIFACAFDQSESRLLTAEADKTIKVYREDDTATEETHPVSWKPEIIKRKRF [PLRG1]”, the “solubility in G1/S (log2)” value in the series with HeLa Kyoto [1] is -0.776. In addition, the melting temperature with HeLa Kyoto [2] (cell cycle stage: G1/S) and in the series with HeLa Kyoto [2] (cell cycle stage: mitosis) was 50.6 °C in each case. In the series on HeLa Kyoto [3], the “solubility change mitosis (log2)” value worked out at 0.247. Besides, the thermal stability score in the series with HeLa Kyoto [4] (setting [5]) was -0.0826; in the series with HeLa Kyoto [4] (cell cycle stage: mitosis), -5.45.
